Data: the supplement of paper PMC7125110
± gives the standard error. Variants at the floor of the assay were thinned out.

B1: glmS ribozyme (parent)
chain: AUAAAAGCGCCAGAACUACAGAAAUGUAGUUGACGAGGAGGAGGUUUAUCGAAUUUUCGGCGGAUGCCUCCAAA

Variants of: B1
Experiment: self-cleavage kobs at 640 uM GlcN6P; higher = faster cleavage; RNA array
Conditions: with glucosamine-6-phosphate
Method in brief: (§1)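 Barcoded ribozyme variants were transcribed in situ on sequenced MiSeq chips by E. coli RNA polymerase. At 37 °C, a hybridised Cy3 probe tracked them while glucosamine-6-phosphate (40 μM to 10 mM) in HEPES/KCl/Mg(OAc)2 buffer flowed in and tiles were imaged over ~14 h. Per-tile medians of signals normalised to baseline and to non-cleaving reference variants were fit to one- or two-exponential decays, giving kobs. kcat and KM came from weighted Michaelis–Menten fits across concentrations.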

| Variant | self-cleavage kobs at 640 uM GlcN6P |
| --- | --- |
| AUAAAAGCGUCAGAACUACAGAAAUGUAGUUGACUAGGAGGAGGUUUAUCAAAUUUUCGGCGGAUGCCUCCAAA | < 1e-05 s⁻¹ |
| AUAAAAGCGCAAGAACUACAGAAAUGUAGUUAACGAGGAGGAGGUUUAUCGAAUUUUCGGCGGAUUCCUCCAAA | < 1e-05 s⁻¹ |
| AUAAAAGCGCAAGAACUACAGAAAUGUAGUUGACGAUGAGGAGGUUUAUCGAAUUUUCGGCGGGUGCCUCCAAA | < 1e-05 s⁻¹ |
| AUAAAAGCGUCAGUACUACAGAAAUGUAGUUAACGAGGAGGCGGUUUAUCGAAUUUUCGGCGGAUGCCUCCAAA | < 1e-05 s⁻¹ |
| AUAAAAGCGCAAGAUCUACAGAAAUGUAGUUGACGAGGAGGAGGUUUAUCGAAUUUUCGGCGGCUGCCUCCAAA | < 1e-05 s⁻¹ |
| AUAAAAGCGUCACAUUUACAGAAAUGUAGUUGACGAGGAGGAGGUUUAUGGAAUUUUCGGCGGAUGCCUCCAAA | 0.000145 ± 6.3e-05 s⁻¹ |
| AUAAAAGCGUCAGAACUACAGAAAUGUAGUUGACGAGUAGGAGGUUUAUCGAAUUUGCGGGGGAUUCCUCCAAA | 0.000307 ± 9.3e-05 s⁻¹ |
| AUAAAAGCGCAAGAACUACAGAAAUGUAGUUGACGAGGUGGAGGCUUAUCCAAUUUUCGGUGGAUGCCUCCAAA | < 1e-05 s⁻¹ |
| AUAAAAGCGCAAGAACUACAGAAAUGUAGUUGACGACGAGGAGGUUUAUCGAAUUUUCGGCGGAGGCCUCCAAA | < 1e-05 s⁻¹ |
| AUAAAAGCGUCAGAACUACAUAAAUGUAGUUGACGAGGAGGAGGUUUAUCGAAUUUUCGGCAGAUGCCUCCAAA | < 1e-05 s⁻¹ |
| AUAAAAGCGCAAGAACUACAGAAAUGUAGUUGACGAGGAGGAGGUUUAUCGACUUUUCGGCGGAUUCCUCCAAA | < 1e-05 s⁻¹ |
| AUAAAAGCGCAAGAACUACAGAAAUGUAGUUUACGAGGAGGAGGUUUAUCGAAUUUUCGGCGGAUGCCUGCAAA | 0.000101 ± 4.4e-05 s⁻¹ |
| AUAAAAGCGCAAGAAUUACAGAAAUGUAGUUGACGAGGAGGAGGUUUAUCGAAUUUUCGGCGGAUGCCGCCAAA | 0.000429 ± 0.00014 s⁻¹ |
| AUAAAAGCGUCAGAACUACAGAAAUGUAGUUGGCGAGGAGGAGGUUUAUCGAAAUUUCGGCGGAUGCCUCCAAA | < 1e-05 s⁻¹ |
| AUAAAAGCGCAAGAGCUACAGAAAUGUAAUUGACGAGGAGGAGGUUUAUCGAAUUUUCGGCGGAUGCCUCCAAA | < 1e-05 s⁻¹ |
| AUAAAAGCGUCAGAACUACAGAAAUGUAGUUGACGAGGAGGAGGUUUAUCGAAUUUUGGGCGGAUGACUCCAAA | 0.000107 ± 3.8e-05 s⁻¹ |
| AUAAAAGCGUCAGAACUACAGAAAUGUAGUUGACGAGUAGGAGGUUUAUCGAAUUUUCGGCGGAUGCCACCAAA | 8.22e-05 ± 2.4e-05 s⁻¹ |
| AUAAAAGCGUCAGAACUACAGAAAUGUAGUUGACGAGGAGGAGGUAUAACGAAUUUUCGGCAGAUGCCUCCAAA | < 1e-05 s⁻¹ |
| AUAAAAGCGUCCGAACUACAGAAAUGUAGUUGACGAGGAGGAGGUUUAUCGAAUUUUCGUCGGAUGCCUCCAAA | < 1e-05 s⁻¹ |
| AUAAAAGCGUCAGAACUACAGAAAUGUAGUUGACCAGGAGGAGGUUUAUCGAAUUUUCGACGGAUGCCUCCAAA | < 1e-05 s⁻¹ |
| AUAAAAGCGGAAGAACUACAGAAAUGUAGUUGACGAGGUGGAGGUUUAUCGAAUUUUCGGCGGAUGCCUCCAAA | < 1e-05 s⁻¹ |
| AUAAAAGCGGCAGAACUACAGAAAUGUAGUUGACGAGGACGAGGUUUAUCGAAUUUUCGGCGGAUGCCUCGAAA | < 1e-05 s⁻¹ |
| AUAAAAGCGUCAGAACUACAGAAAUGUAGUUGACGAGGAGGAGGCUUAUCGAAUUUUCGGCGGAUGCAUCCAAA | < 1e-05 s⁻¹ |
| AUAAAAGCGCAAGCACUACAGAAAUGUAGUUGACGAGGAGGAGGUUUAUCGUAUUUUCGGCGGAUGCCUCCAAA | < 1e-05 s⁻¹ |
| AUAAAAGCGGCAGAACUACAGAAAUGUAGUUGACGAGGAGGAGGUUUAUCGAAUUUUGGGCCGAUGCCUCCAAA | < 1e-05 s⁻¹ |
| AUAAAAGCGGCAGAACUACAGAAAUGUAGUUGACGAGGAGUAGGUUUAUCGAAUAUUGGGCGUAUGCCUCCAAA | < 1e-05 s⁻¹ |
| AUAAAAGCGCAAGCACUACAGAAAUGUAGUUGACGAGGAGGAGAUUUAUCGAAUUUUCGGCGGAUUCCUCCAAA | < 1e-05 s⁻¹ |
| AUAAAAGCGUCAGACCUACAGAAAUGUAGUUGACGAGGAGGAUGUUUAUCGAAUUUUCGGCGUAUGCCUCCAAA | < 1e-05 s⁻¹ |

Variants of: B1
Experiment: self-cleavage kobs at 2500 uM GlcN6P; higher = faster cleavage; RNA array
Conditions: with glucosamine-6-phosphate
Method in brief: as §1

| Variant | self-cleavage kobs at 2500 uM GlcN6P |
| --- | --- |
| AUAAAAGCGCAAGAUCUACAGAAAUGUAGUUGACGAGGAGGAGGUUUAUCGAAUUUUCGGCGGCUGCCUCCAAA | < 1e-05 s⁻¹ |
| AUAAAAGCGUCACAUUUACAGAAAUGUAGUUGACGAGGAGGAGGUUUAUGGAAUUUUCGGCGGAUGCCUCCAAA | 0.000146 ± 5.6e-05 s⁻¹ |
| AUAAAAGCGCAAGAACUACAGAAAUGUAGUUGACGAGGUGGAGGCUUAUCCAAUUUUCGGUGGAUGCCUCCAAA | < 1e-05 s⁻¹ |
| AUAAAAGCGUCAGAACUACAGAAAUGUAGUUGACGAGGAGGAGGUAUAACGAAUUUUCGGCAGAUGCCUCCAAA | < 1e-05 s⁻¹ |
| AUAAAAGCGUCAGAACUACAGAAAUGUAGUUGACCAGGAGGAGGUUUAUCGAAUUUUCGACGGAUGCCUCCAAA | < 1e-05 s⁻¹ |
| AUAAAAGCGGAAGAACUACAGAAAUGUAGUUGACGAGGUGGAGGUUUAUCGAAUUUUCGGCGGAUGCCUCCAAA | < 1e-05 s⁻¹ |
| AUAAAAGCGGCAGAACUACAGAAAUGUAGUUGACGAGGACGAGGUUUAUCGAAUUUUCGGCGGAUGCCUCGAAA | < 1e-05 s⁻¹ |
| AUAAAAGCGCAAGCACUACAGAAAUGUAGUUGACGAGGAGGAGAUUUAUCGAAUUUUCGGCGGAUUCCUCCAAA | < 1e-05 s⁻¹ |
| AUAAAAGCGUCAGACCUACAGAAAUGUAGUUGACGAGGAGGAUGUUUAUCGAAUUUUCGGCGUAUGCCUCCAAA | < 1e-05 s⁻¹ |

Variants of: B1
Experiment: self-cleavage kobs at 10000 uM GlcN6P; higher = faster cleavage; RNA array
Conditions: with glucosamine-6-phosphate
Method in brief: as §1

| Variant | self-cleavage kobs at 10000 uM GlcN6P |
| --- | --- |
| AUAAAAGCGUCAGAACUACAUAAAUGUAGUUGACGAGGAGGAGGUUUAUCGAAUUUUCGGCAGAUGCCUCCAAA | < 1e-05 s⁻¹ |
